Experimental data reported in US10335489B2, “Injectable solution at pH 7 comprising at least one basal insulin the pi of which is between 5.8 and 8.5 and a substituted co-polyamino acid” (ADOCIA, priority 2012, dated 2019).

Experiment: Precipitation of insulin glargine on addition to PBS/BSA mixture simulating the subcutaneous medium, centrifugation, RP-HPLC assay of supernatant
Type: physicochemical
Conditions: co-polyamino acid 1/insulin glargine/prandial insulin 75/25 composition added to 2 ml PBS/BSA
Procedure: The PBS/BSA mixture simulates the composition of the subcutaneous medium.
Centrifugation at 4000 rpm is carried out in order to separate the precipitate from the supernatant.
(§1) The PBS/BSA mixture simulates the composition of the subcutaneous medium. A precipitate appears.
as §1
This composition is added to 2 ml of PBS containing 20 mg/ml of BSA (bovine serum albumin). The PBS/BSA mixture simulates the composition of the subcutaneous medium. A precipitate appears. Centrifugation at 4000 rpm is carried out in order to separate the precipitate from the supernatant. […]
The PBS/BSA mixture simulates the composition of the subcutaneous medium. A precipitate appears. Centrifugation at 4000 rpm is carried out in order to separate the precipitate from the supernatant.
as §1

## Human insulin (ActRapid ®): commercial solution of human insulin at 100 IU/ml
  Precipitation of insulin glargine: yes
